Substrate: CC(=O)CC(=O)SCCNC(=O)CCNC(=O)[C@H](O)C(C)(C)COP(=O)(O)OP(=O)(O)OC[C@H]1O[C@@H](n2cnc3c(N)ncnc32)[C@H](O)[C@@H]1OP(=O)(O)O
Assay: purified protein
Type: biochemical, Pseudomonas putida
Settings: thiolytic cleavage, 70 μM CoASH, 25 mM MgCl2, 0.1 M Tris-HCl pH 8.3, 37 °C

B1: PcaF (β-ketoadipyl-CoA thiolase) (Pseudomonas putida KT2440) (protein)
chain: MHDVFICDAIRTPIGRFGGALASVRADDLAAVPLKALIERNPGVQWDQVDEVFFGCANQAGEDNRNVARMALLLAGLPESIPGVTLNRLCASGMDAVGTAFRAIASGEMELVIAGGVESMSRAPFVMGKAESAYSRNMKLEDTTIGWRFINPLMKSQYGVDSMPETADNVADDYQVSRADQDAFALRSQQKAAAAQAAGFFAEEIVPVRIAHKKGEIIVERDEHLRPETTLEALTKLKPVNGPDKTVTAGNASGVNDGAAAMILASAAAVKKHGLTPRARVLGMASGGVAPRVMGIGPVPAVRKLTERLGIAVSDFDVIELNEAFASQGLAVLRELGVADDAPQVNPNGGAIALGHPLGMSGARLVLTALHQLEKSGGRKGLATMCVGVGQGLALAIERV
notes: full length, 400 residues plus 22 vector residues; N-terminal His-tag with TEV site, pSGC-His, E. coli BL21(DE3) pLysS; tetramer
Km: 67.8 ± 8.2 µM | kcat: 0.7 ± 0.08 S^−1

Reference: PMC7337054, “Structural basis for differentiation between two classes of thiolase: Degradative vs biosynthetic thiolase” (Journal of Structural Biology: X, 2020)
